Values quoted from earlier work as cited in publication PMC4351059.

Biological target: Cys215 (UniProt position 215, PVVVHCSAGIG)
Conditions: not stated (reduced free enzyme implied)

Protein-tyrosine phosphatase 1B (PTP1B) (Homo sapiens (as described in this article; the cited source title says 'mammalian protein-tyrosine-phosphatase PTP1'))
pKa: 5.6
